Biological target: PD-L1
Experiment: -; literature value (Cheng et al., 2013)

Kd: 8.2 µM
Substance: PD-1 WT
